In patent US20260049138A1 (Chugai, published 2026):
Changes are numbered by the printed parent chain. Numbers in names are those of the source.

B1: CE115HA000 H35Q one-arm antibody (antibody, human IgG1, kappa, L234A L235A, N297A, name in Kabat numbering)
heavy: QVQLVESGGGVVQPGRSLRLSCAASGFTFSNAWMQWVRQAPGKGLEWVAQIKAKSNNYATYYAESVKGRFTISRDDSKNSLYLQMNSLKTEDTAVYYCRYVHYGAYYGVDAWGQGTTVTVSSASTKGPSVFPLAPSSKSTSGGTAALGCLVKDYFPEPVTVSWNSGALTSGVHTFPAVLQSSGLYSLSSVVTVPSSSLGTQTYICNVNHKPSNTKVDKKVEPKSCDKTHTCPPCPAPEAAGGPSVFLFPPKPKDTLMISRTPEVTCVVVDVSHEDPEVKFNWYVDGVEVHNAKTKPREEQYASTYRVVSVLTVLHQDWLNGKEYKCKVSNKALPAPIEKTISKAKGQPREPQVYTLPPSRCELTKNQVSLSCAVKGFYPSDIAVEWESNGQPENNYKTTPPVLDSDGSFFLVSKLTVDKSRWQQGNVFSCSVMHEALHNHYTQKSLSLSPDYKDDDDK
chain: EPKSSDKTHTCPPCPAPELLGGPSVFLFPPKPKDTLMISRTPEVTCVVVDVSHEDPEVKFNWYVDGVEVHNAKTKPREEQYNSTYRVVSVLTVLHQDWLNGKEYKCKVSNKALPAPIEKTISKAKGQPREPQVCTLPPSRDELTKNQVSLWCLVKGFYPSDIAVEWESNGQPENNYKTTPPVLDSDGSFFLYSKLTVDKSRWQQGNVFSCSVMHEALHNRYTQKSLSLSP
light: DIVMTQSPLSLPVTPGEPASISCRSSQSLVHSNRNTYLHWYQQKPGQAPRLLIYKVSNRFSGVPDRFSGSGSGTDFTLKISRVEAEDVGVYYCGQGTQVPYTFGQGTKLEIKRTVAAPSVFIFPPSDEQLKSGTASVVCLLNNFYPREAKVQWKVDNALQSGNSQESVTEQDSKDSTYSLSSTLTLSKADYEKHKVYACEVTHQGLSSPVTKSFNRGEC
B2: CE115HA000 H35V one-arm antibody (antibody, human IgG1, kappa, L234A L235A, N297A, name in Kabat numbering)
heavy: B1 heavy with Q35V
chain: B1 chain
light: B1 light
B3: CE115HA000 H35T one-arm antibody (antibody, human IgG1, kappa, L234A L235A, N297A, name in Kabat numbering)
heavy: B1 heavy with Q35T
chain: B1 chain
light: B1 light
B4: CE115HA000 H35W one-arm antibody (antibody, human IgG1, kappa, L234A L235A, N297A, name in Kabat numbering)
heavy: B1 heavy with Q35W
chain: B1 chain
light: B1 light
B5: CE115HA000 H96L one-arm antibody (antibody, human IgG1, kappa, L234A L235A, N297A, name in Kabat numbering)
heavy: B1 heavy with Q35H, H102L
chain: B1 chain
light: B1 light
B6: CE115HA000 H35S one-arm antibody (antibody, human IgG1, kappa, L234A L235A, N297A, name in Kabat numbering)
heavy: B1 heavy with Q35S
chain: B1 chain
light: B1 light
B7: CE115HA000 H35Y one-arm antibody (antibody, human IgG1, kappa, L234A L235A, N297A, name in Kabat numbering)
heavy: B1 heavy with Q35Y
chain: B1 chain
light: B1 light
B8: CE115HA000 H96G one-arm antibody (antibody, human IgG1, kappa, L234A L235A, N297A, name in Kabat numbering)
heavy: B1 heavy with Q35H, H102G
chain: B1 chain
light: B1 light
B9: CE115HA000 H96K one-arm antibody (antibody, human IgG1, kappa, L234A L235A, N297A, name in Kabat numbering)
heavy: B1 heavy with Q35H, H102K
chain: B1 chain
light: B1 light
B10: CE115HA000 H35R one-arm antibody (antibody, human IgG1, kappa, L234A L235A, N297A, name in Kabat numbering)
heavy: B1 heavy with Q35R
chain: B1 chain
light: B1 light

Target: T1, CD3ε homodimer protein (human, UniProt P07766 23-126, limits assumed, sulfo-tag or biotin label in the ECL assays; amine-coupled to the chip in SPR)
T1 construct: also called human CD3ε homodimer protein; CD3 (CD3ε)
T1 sequence (P07766 23-126 limits assumed): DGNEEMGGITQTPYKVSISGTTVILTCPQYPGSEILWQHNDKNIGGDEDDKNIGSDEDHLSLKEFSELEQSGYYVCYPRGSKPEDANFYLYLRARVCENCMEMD
Experiment: SPR Biacore T200; CD3ε homodimer on CM4 chip;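 also: Single-residue variant antibodies injected as analyte over CD3ε homodimer immobilized by amine coupling, run at 25 °C in HBS-EP+ buffer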
Protocol: An appropriate amount of CD3ε homodimer protein was immobilized onto Sensor chip CM4 (GE Healthcare Japan Corp.) by the amine coupling method. Then, the antibody having an appropriate concentration was injected thereto as an analyte and allowed to interact with the CD3ε homodimer protein on the sensor chip. Then, the sensor chip was regenerated by the injection of 10 mmol/L glycine-HCl (pH 1.5). The assay was conducted at 25° C., and HBS-EP+ (GE Healthcare Japan Corp.) was used as a running buffer. […] Each parameter was calculated using Biacore T200 Evaluation Software (GE Healthcare Japan Corp.).

Row | Binder | ratio of amounts bound Z=Y/X (altered form / CE115HA000)
1 | B1 | 0.13
2 | B2 | 0.22
3 | B3 | 0.26
4 | B4 | 0.22
5 | B5 | 0.14
6 | B6 | 0.23
7 | B7 | 0.16
8 | B8 | 0.43
9 | B9 | 0.35
10 | B10 | 0.14
